Assay results taken from a protein production outcome set (Wang et al. 2014).

Assay: label from the status in PepcDB records
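Also: failed if final PepcDB status was selected cloned or expressed and not failed if soluble or beyond.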

Sequence: MEYSSIANGLFLISDINSDAAATISNVFDHTSMNTADLENMPTEKPVEYTKSPGHYYIVLPGQPNKYTAKIIINQLNASGETSDIATTTATSAYTTGLFTISAKYLVDDAFVINAGTGQEMTLTRIMDMDGSDYETFPVDVNQGPQTFTIVPQDQLLHATVNYKFADGTEAAPSAKLSGYAGLTTVSAKSPTISGYTPDQKEVAVAFAPTEKTYTVTYKANPTTPTATESSASSSTADEATTFTPFKIYGKRALYTYKNATFKKNQRVSHYAQKSKAYAPIFEVVGTAKSTSGHLRYKLADGTYVTANADYVGALYWQGMYQKLYVTNPKGTNAYDGTRFAQATKQKHYRQGTALTVVKQTQVGQTTRYELTNGTYVTGNKQWVSPTKPRLVKQVKVKRTIRLYRDVNGSTFIKRIKPGKTLTVTGWDYSHGRNPRLSGTLRYRVAGGYITANRQFVVAN
- protein production: failed

Sequence: MSLKITSIEVFDCELKKRDQTMSSYNPVLIRVNTDSGLSGIGEVGLAYGAGAKAGVGIIRDLAPLIVGEDPLNIEKIWEFFFRKTFWGMGGGNVFYAGMSAIDIALWDIKGKYLGVPVYQLLGGKTNEKLRTYASQLQFGWGDKRHILVTPEEYAEAARAALDDGYDAIKVDPLEIDRNGDDCVFQNRNRNYSGLLLADQLKMGEARIAAMREAMGDDADIIVEIHSLLGTNSAIQFAKAIEKYRIFLYEEPIHPLNSDNMQKVSRSTTIPIATGERSYTRWGYRELLEKQSIAVAQPDLCLCGGITEGKKICDYANIYDTTVQVHVCGGPVSTVAALHMETAIPNFIIHEHHTNAMKASIRELCTHDYQPENGYYVAPEQPGLGQELNDEVVKEYLAYVIKEGHHHHHH
- protein production: not failed

Sequence: MAAVILESIFLKRSQQKKKTSPLNFKKRLFLLTVHKLSYYEYDFERGRRGSKKGSIDVEKITCVETVVPEKNPPPERQIPRRGEESSEMEQISIIERFPYPFQVVYDEGPLYVFSPTEELRKRWIHQLKNVIRYNSDLVQKYHPCFWIDGQYLCCSQTAKNAMGCQILENRNGSLKPGSSHRKTKKPLPPTPEEDQILKKPLPPEPAAAPVSTSELKKVVALYDYMPMNANDLQLRKGDEYFILEESNLPWWRARDKNGQEGYIPSNYVTEAEDSIEMYEWYSKHMTRSQAEQLLKQEGKEGGFIVRDSSKAGKYTVSVFAKSTGDPQGVIRHYVVCSTPQSQYYLAEKHLFSTIPELINYHQHNSAGLISRLKYPVSQQNKNAPSTAGLGYGSWEIDPKDLTFLKELGTGQFGVVKYGKWRGQYDVAIKMIKEGSMSEDEFIEEAKVMMNLSHEKLVQLYGVCTKQRPIFIITEYMANGCLLNYLREMRHRFQTQQLLEMCKDVCEAMEYLESKQFLHRDLAARNCLVNDQGVVKVSDFGLSRYVLDDEYTSSVGSKFPVRWSPPEVLMYSKFSSKSDIWAFGVLMWEIYSLGKMPYERFTNSETAEHIAQGLRLYRPHLASEKVYTIMYSCWHEKADERPTFKILLSNILDVMDEES
- protein production: not failed

Sequence: MNYPLTLEMDLENLEDLFWELDRLDNYNDTSLVENHLCPATEGPLMASFKAVFVPVAYSLIFLLGVIGNVLVLVILERHRQTRSSTETFLFHLAVADLLLVFILPFAVAEGSVGWVLGTFLCKTVIALHKVNFYCSSLLLACIAVDRYLAIVHAVHAYRHRRLLSIHITCGTIWLVGFLLALPEILFAKVSQGHHNNSLPRCTFSQENQAETHAWFTSRFLYHVAGFLLPMLVMGWCYVGVVHRLRQAQRRPQRQKAVRVAILVTSIFFLCWSPYHIVIFLDTLARLKAVDNTCKLNGSLPVAITMCEFLGLAHCCLNPMLYTFAGVKFRSDLSRLLTKLGCTGPASLCQLFPSWRRSSLSESENATSLTTF
- protein production: failed

Sequence: MSGDMEATGWGYTHISVDSFCHKWTISNFSFCMDGIMETITSPKFSLKASDKVEWGLKVHPNGIDEESKNYLSVYLALLHCQKSPVWAKYEFWIINSQGEKYQSRKSTKVVSFHKNKYRGFKKFILRDFLFSNPHRLLPEDQLTLCCQVSIMGAFFKTPGQSITPAVPDPRHMMADDLGELWENSLCTDCCLLVAGQEFRAHKAILAARSPVFRAMFEHQMEERLTNRVDINGLDPKVFKEMMGFIYTGKAPHLHIHSMACDLLAAADRYGLEGLKVMCEDALCRNLSVENAAHTLILADLHNIEQLKTQALDFIALHASEVSENSEWKSMMESHPHLVAETFHSLASAQCFLEPSIKHLK
- protein production: failed

Sequence: MYYNIALAYTHLDIHHLAIHFVNMALEGFRSEYKFRNIINCQILIAVSYTEKGQYEEALKMYESILREATSFADKDVLLAITLSNMGSIYYKKGKYQQAKKYYLDSLQLQKQIDLNYLDTIYEMALVCIKLEELEEARTLIDKGIDAAKQEERFNAKLYLLLMLRYKYFEEAKDYKAFLENEAIPLYKSAGNKIELKKVYVELAEHFSSLSRFEESNRYYRLVIDLMNDNKEE
- protein production: failed

Sequence: MVNTNLEELRTQVDQLNIDLLELISKRANLVQEIGKIKGTQGSLRFDPLREREMLNTILAANEGPFEDSTVQKLFKEIFKAGLELQEEDHSKALLVSRKNKKEDTIVTVKGLPIGNGEPVFVFGPCSVESYEQVAAVAESIKAKGLKLIRGGAFKPRTSPYDFQGLGLEGLKILKRVSDEYGLGVISEIVTPADIEVALDYVDVIQIGARNMQNFELLKAAGRVDKPILLKRGLSATIEEFIGAAEYIMSQGNGKIILCERGIRTYEKATRNTLDISAVPILKKETHLPVMVDVTHSTGRKDLLLPCAKAALAIEADGVMAEVHPDPAVALSDSAQQMDIPEFEEFWNAILASNLVPHKIK
- protein production: not failed

Sequence: MASNMDREMILADFQACTGIENIDEAITLLEQNNWDLVAAINGVIPQENGILQSEYGGETIPGPAFNPASHPASAPTSSSSSAFRPVMPSRQIVERQPRMLDFRVEYRDRNVDVVLEDTCTVGEIKQILENELQIPVSKMLLKGWKTGDVEDSTVLKSLHLPKNNSLYVLTPDLPPPSSSSHAGALQESLNQNFMLIITHREVQREYNLNFSGSSTIQEVKRNVYDLTSIPVRHQLWEGWPTSATDDSMCLAESGLSYPCHRLTVGRRSSPAQTREQSEEQITDVHMVSDSDGDDFEDATEFGVDDGEVFGMASSALRKSPMMPENAENEGDALLQFTAEFSSRYGDCHPVFFIGSLEAAFQEAFYVKARDRKLLAIYLHHDESVLTNVFCSQMLCAESIVSYLSQNFITWAWDLTKDSNRARFLTMCNRHFGSVVAQTIRTQKTDQFPLFLIIMGKRSSNEVLNVIQGNTTVDELMMRLMAAMEIFTAQQQEDIKDEDEREARENVKREQDEAYRLSLEADRAKREAHEREMAEQFRLEQIRKEQEEEREAIRLSLEQALPPEPKEENAEPVSKLRIRTPSGEFLERRFLASNKLQIVFDFVASKGFPWDEYKLLSTFPRRDVTQLDPNKSLLEVKLFPQETLFLEAKE
- protein production: not failed

Sequence: TEASSLVGKLETDVEIKASADKFHHMFAGKPHHVSKASPGNIQGCDLHEGDWGTVGSIVFWNYVHDGEAKVAKERIEAVEPDKNLITFRVIEGDLMKEYKSFLLTIQVTPKPGGPGSIVHWHLEYEKISEEVAHPETLLQFCVEVSKEIDEHLLAEE
- protein production: not failed

Sequence: LVTISSTSAASLPTMPPSGYDQVRNGVPRGQVVNISYFSTATNSTRPARVYLPPGYSKDKKYSVLYLLHGIGGSENDWFEGGGRANVIADNLIAEGKIKPLIIVTPNTNAAGPGIADGYENFTKDLLNSLIPYIESNYSVYTDREHRAIAGLSMGGGQSFNIGLTNLDKFAYIGPISAAPNTYPNERLFPDGGKAAREKLKLLFIACGTNDSLIGFGQRVHEYCVANNINHVYWLIQGGGHDFNVWKPGLWNFLQMADEAGLTRDGNT
- protein production: not failed

Sequence: MLMSFILLISTSMILISVFSYVLIALIVLGIVLSLISLLSPRVSYVSSVYLIGLTVYLNPGFSLTQSLINTVPILGEINMLSGLLKTPVTSIISSLFSLALLNLGIKGYEIYLSKHADIVKLDSIIFSQHGLPKQANWNIVVNSEVKLLKSNEKLILSNTPEAKYELCPTLVDHKYYVPNKVTGLAFEGEVIRINYSPVDGVPYEKFRNCFTVFEVEGLPPDTSFVIEINGASLKLKDRKFAKLSLEPLYWKVNEIRISREDEEEIYEPDIKEGLTFRGGTVKINFRRKVIRYKTAKIPSIENWDPGIWVGQEVYGYRVIEVIGLGGNGYVMKVEKNGLLYAMKVLSVNKFTNSLEHFDNLLKESENLEKLSKDPRLVSIYGSFVDKNNIQSALAGDYTSYYKYPPAIIMEFMEGGTLFDLISRVDLVQSKYWQYIVKLVIKEIAKALTFLHKRGYVHLDVKPQNIFLKEKINGEPEVVYKILSSTPGIIKLGDLGSAVRVGEKITQATPAYSPPEQIEAVITGKGAQPSMDNYALGVTLYKLLTMKNLDYVNYLDKAFDEYIKGDPSIAMKYINMAKMSMVNFKPKLPHNTLPELANVVQGTLVVDPKRRLTSYDIVKILEG
- protein production: failed
